# Laboratory results as given in IntAct's records for PubMed 12649160.
# B1: Fanconi anemia group C protein (Homo sapiens), Q00597 (parent)
# chain: MAQDSVDLSCDYQFWMQKLSVWDQASTLETQQDTCLHVAQFQEFLRKMYEALKEMDSNTVIERFPTIGQLLAKACWNPFILAYDESQKILIWCLCCLINKEPQNSGQSKLNSWIQGVLSHILSALRFDKEVALFTQGLGYAPIDYYPGLLKNMVLSLASELRENHLNGFNTQRRMAPERVASLSRVCVPLITLTDVDPLVEALLICHGREPQEILQPEFFEAVNEAILLKKISLPMSAVVCLWLRHLPSLEKAMLHLFEKLISSERNCLRRIECFIKDSSLPQAACHPAIFRVVDEMFRCALLETDGALEIIATIQVFTQCFVEALEKASKQLRFALKTYFPYTSPSLAMVLLQDPQDIPRGHWLQTLKHISELLREAVEDQTHGSCGGPFESWFLFIHFGGWAEMVAEQLLMSAAEPPTALLWLLAFYYGPRDGRQQRAQTMVQVKAVLGHLLAMSRSSSLSAQDLQTVAGQGTDTDLRAPAQQLIRHLLLNFLLWAPGGHTIAWDVITLMAHTAEITHEIIGFLDQTLYRWNRLGIESPRSEKLARELLKELRTQV
# partner: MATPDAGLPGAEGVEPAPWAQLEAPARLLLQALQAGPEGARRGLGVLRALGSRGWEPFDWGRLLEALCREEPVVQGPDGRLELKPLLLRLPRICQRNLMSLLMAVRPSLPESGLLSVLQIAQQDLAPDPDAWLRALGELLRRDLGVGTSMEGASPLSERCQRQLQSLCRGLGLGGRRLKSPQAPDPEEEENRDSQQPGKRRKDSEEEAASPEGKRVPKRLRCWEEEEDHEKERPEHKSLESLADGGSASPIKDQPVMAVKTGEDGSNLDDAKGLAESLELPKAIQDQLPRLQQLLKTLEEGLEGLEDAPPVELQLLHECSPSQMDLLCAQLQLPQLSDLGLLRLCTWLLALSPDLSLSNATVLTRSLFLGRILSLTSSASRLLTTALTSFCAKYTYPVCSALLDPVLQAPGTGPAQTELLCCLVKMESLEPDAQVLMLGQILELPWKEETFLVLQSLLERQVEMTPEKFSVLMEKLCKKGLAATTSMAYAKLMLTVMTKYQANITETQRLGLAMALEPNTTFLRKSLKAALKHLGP
# B2: Fanconi anemia group G protein (Homo sapiens), O15287 (parent)
# chain: MSRQTTSVGSSCLDLWREKNDRLVRQAKVAQNSGLTLRRQQLAQDALEGLRGLLHSLQGLPAAVPVLPLELTVTCNFIILRASLAQGFTEDQAQDIQRSLERVLETQEQQGPRLEQGLRELWDSVLRASCLLPELLSALHRLVGLQAALWLSADRLGDLALLLETLNGSQSGASKDLLLLLKTWSPPAEELDAPLTLQDAQGLKDVLLTAFAYRQGLQELITGNPDKALSSLHEAASGLCPRPVLVQVYTALGSCHRKMGNPQRALLYLVAALKEGSAWGPPLLEASRLYQQLGDTTAELESLELLVEALNVPCSSKAPQFLIEVELLLPPPDLASPLHCGTQSQTKHILASRCLQTGRAGDAAEHYLDLLALLLDSSEPRFSPPPSPPGPCMPEVFLEAAVALIQAGRAQDALTLCEELLSRTSSLLPKMSRLWEDARKGTKELPYCPLWVSATHLLQGQAWVQLGAQKVAISEFSRCLELLFRATPEEKEQGAAFNCEQGCKSDAALQQLRAAALISRGLEWVASGQDTKALQDFLLSVQMCPGNRDTYFHLLQTLKRLDRRDEATALWWRLEAQTKGSHEDALWSLPLYLESYLSWIRPSDRDAFLEEFRTSLPKSCDL
# partner: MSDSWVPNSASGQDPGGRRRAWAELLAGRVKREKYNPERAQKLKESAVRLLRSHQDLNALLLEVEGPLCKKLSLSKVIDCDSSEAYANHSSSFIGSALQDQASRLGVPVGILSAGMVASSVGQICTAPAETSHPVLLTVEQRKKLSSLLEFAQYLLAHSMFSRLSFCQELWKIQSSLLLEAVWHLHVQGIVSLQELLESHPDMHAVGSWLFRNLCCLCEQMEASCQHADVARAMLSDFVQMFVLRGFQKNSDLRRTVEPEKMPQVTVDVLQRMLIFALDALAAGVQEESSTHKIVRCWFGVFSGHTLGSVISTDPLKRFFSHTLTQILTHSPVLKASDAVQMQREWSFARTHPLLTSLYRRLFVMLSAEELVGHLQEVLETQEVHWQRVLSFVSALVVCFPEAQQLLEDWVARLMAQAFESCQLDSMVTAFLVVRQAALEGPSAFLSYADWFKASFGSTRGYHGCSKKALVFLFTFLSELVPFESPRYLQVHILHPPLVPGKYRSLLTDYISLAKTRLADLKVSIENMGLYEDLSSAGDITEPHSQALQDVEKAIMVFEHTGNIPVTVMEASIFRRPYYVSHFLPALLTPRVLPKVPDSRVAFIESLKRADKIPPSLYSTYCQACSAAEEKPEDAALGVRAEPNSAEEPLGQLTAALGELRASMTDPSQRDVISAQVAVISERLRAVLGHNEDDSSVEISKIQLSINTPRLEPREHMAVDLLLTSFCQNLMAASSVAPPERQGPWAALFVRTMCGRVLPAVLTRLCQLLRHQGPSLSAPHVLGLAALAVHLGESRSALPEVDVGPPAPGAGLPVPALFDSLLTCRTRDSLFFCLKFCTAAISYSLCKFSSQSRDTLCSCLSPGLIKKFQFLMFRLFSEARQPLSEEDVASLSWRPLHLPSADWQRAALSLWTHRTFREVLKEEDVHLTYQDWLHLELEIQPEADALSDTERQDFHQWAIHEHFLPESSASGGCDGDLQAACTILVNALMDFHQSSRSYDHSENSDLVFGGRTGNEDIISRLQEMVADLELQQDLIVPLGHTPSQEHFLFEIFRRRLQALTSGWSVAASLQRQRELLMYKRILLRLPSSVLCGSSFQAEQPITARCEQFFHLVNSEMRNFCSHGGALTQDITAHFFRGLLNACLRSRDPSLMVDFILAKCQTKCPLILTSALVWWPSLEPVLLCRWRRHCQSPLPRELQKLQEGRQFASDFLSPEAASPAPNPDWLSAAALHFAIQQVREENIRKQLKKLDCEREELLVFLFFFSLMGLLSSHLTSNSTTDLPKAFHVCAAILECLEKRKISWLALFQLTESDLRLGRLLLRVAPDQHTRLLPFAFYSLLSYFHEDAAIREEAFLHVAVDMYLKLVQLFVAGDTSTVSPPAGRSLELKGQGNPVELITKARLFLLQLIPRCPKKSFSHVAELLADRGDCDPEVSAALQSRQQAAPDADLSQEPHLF
# Variants of: B1
# Conditions: with fance_human FANCE
row,effect of a mutation on the interaction,Variant
1,disrupting interaction,L554P

# Variants of: B2
# Conditions: with fanca_human FANCA
row,effect of a mutation on the interaction,Variant
1,disrupting interaction,L71P
